# Data from publication PMC8646600 (Advanced Science, 2021).
# B1: S-E6 Fab (Fab, V domains shown)
# VH: QVTLRESGPGLVKPSETLSLTCAVSGGSLSSVNYYWSWIRQHPGKGLEWIGYIYYSGSTNYNPSLKSRVTMSLDTSKNQFSLKLSSVTAADTAVYYCATPGAIMGALHIWGQGTLVTVSS
# VL: QAVLTQPSSASSTPGQRVIISCSGSSSNIGSNTVSWYQQVPGAAPKLLIYFDYRRPSGVPDRFSGTRSGTSASLGISGLQSEDEADYYCAAWDDSLSAWVFGRGTKLTVL
# B2: S-E6 full-length human IgG4e1(S228P) antibody (antibody, V domains shown)
# VH: B1 VH
# VL: B1 VL
# notes: also called S-E6 IgG; source: HEK293F, secreted; clarified culture supernatant, and purified (Mabselect)
# B3: S-B8 Fab (Fab, V domains shown)
# VH: QVQLVQSGGGLIQPGGSLRLSCAASGFTVSLSHMNWVRQAPGKGLEWVSITYGDGNSDYADSVKGRFTISRDNSKNTLYLQMNSLRAEDTAVYYCAREYYYGMDVWGQGTTVTVSS
# VL: not shown
# B4: S-B8 full-length human IgG4e1(S228P) antibody (antibody, V domains shown)
# VH: B3 VH
# VL: not shown
# notes: also called S-B8 IgG; source: HEK293F, secreted; clarified culture supernatant, and purified (Mabselect)
# Experiments:
# [1] = biological target: SARS-CoV-2 RBD titrated over immobilised Fabs (construct not stated) (SARS-CoV-2 (ancestral, Wuhan-Hu-1 …, UniProt P0DTC2)); test: BLI; settings: both partners purified
# [2] = biological target: T1, full-length SARS-CoV spike expressed on cells (SARS-CoV, strain , UniProt P59594); test: flow cytometry on cells; settings: one partner purified
# T1 construct: source: HEK293T, transiently transfected, on cells
# [3] = biological target: T2, SARS-CoV-2 spike RBD (S-RBD), hFc tag removed by thrombin digestion, biotinylated (SARS-CoV-2, UniProt P0DTC2); test: BLI; settings: both partners purified
# [4] = biological target: T2, SARS-CoV-2 spike RBD (S-RBD), hFc tag …; test: ELISA; settings: both partners purified
binder,measurement,setting,value
B1,Kd,[1],11.4 nM
B2,binding result,[2],no binding
B3,Kd,[1],15.4 nM
B4,Kd,[3],7.79 nM
same,IC50,[4],12.9 nM
